From the supplement of paper PMC9732359
± gives the uncertainty stated by the source.

Experiment: protein stability index of a GFP-peptide fusion (yeast GPS) (PSI 1-4); higher = more stable; sorted into four equal gates, so the index is relative within each strain
Summary of the method: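 Sequencing reads from sorted gates were used to score each peptide. The library consisted of tiled 17-residue yeast protein peptides fused downstream of GFP on a Cherry-expressing plasmid, pooled and carried in yeast. Mid-log cultures in leucine-free medium were split into four equal gates by GFP/Cherry ratio, and each gate's plasmids were PCR-amplified and Illumina-sequenced. The protein stability index adds up, over all gates, the read frequency multiplied by the gate number.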

**Q.** For KLLGIGDIESLFEQLQT [SRP54], which protein stability index (doa10∆) is on record?
**A.** Its protein stability index is 1.58 ± 0.062.

**Q.** And the protein stability index (pdr5∆)?
**A.** Its protein stability index is 2.15 ± 0.069.

**Q.** And the protein stability index (san1∆)?
**A.** The protein stability index was 2.2 ± 0.13.

**Q.** And the protein stability index (ubr1∆)?
**A.** Its protein stability index is 2.67 ± 0.064.

**Q.** For STKTGTPSDLSESGSKL [POP1], which protein stability index (doa10∆) is on record?
**A.** Its protein stability index is 3.4 ± 0.1.

**Q.** What about the protein stability index (pdr5∆) of the same sequence?
**A.** Its protein stability index is 3.35 ± 0.088.

**Q.** And the protein stability index (san1∆)?
**A.** The protein stability index was 3.24 ± 0.055.

**Q.** And the protein stability index (ubr1∆)?
**A.** The protein stability index was 3.35 ± 0.048.

**Q.** Which results are given for NGLLNEISRLKTSLSIK [SMC2]?
**A.** protein stability index (doa10∆): 3.1 ± 0.21; protein stability index (pdr5∆): 3.25 ± 0.11; protein stability index (san1∆): 3.12 ± 0.11; protein stability index (ubr1∆): 3.11 ± 0.15

**Q.** Which protein stability index (doa10∆) does the source give for ERVRLRPEQLSNIIHDE [SNF6] here?
**A.** The protein stability index was 1.73 ± 0.06.

**Q.** And the protein stability index (pdr5∆)?
**A.** Its protein stability index is 2.23 ± 0.068.

**Q.** And the protein stability index (san1∆)?
**A.** The protein stability index was 1.76 ± 0.083.

**Q.** And the protein stability index (ubr1∆)?
**A.** Its protein stability index is 1.99 ± 0.041.

**Q.** Which protein stability index (doa10∆) does the source give for KKIVDSKKLNLKIHQSH [YMR129W/POM152] here?
**A.** Its protein stability index is 2.85 ± 0.067.

**Q.** What about the protein stability index (pdr5∆) of the same sequence?
**A.** The protein stability index was 2.7 ± 0.056.

**Q.** And the protein stability index (san1∆)?
**A.** Its protein stability index is 2.44 ± 0.17.

**Q.** What about the protein stability index (ubr1∆) of the same sequence?
**A.** The protein stability index was 2.69 ± 0.062.

**Q.** For ILDIVINNPVNLTIHFG [FAS1], which protein stability index (doa10∆) is on record?
**A.** The protein stability index was 2.06 ± 0.088.

**Q.** What about the protein stability index (pdr5∆) of the same sequence?
**A.** Its protein stability index is 2.4 ± 0.078.

**Q.** What about the protein stability index (san1∆) of the same sequence?
**A.** Its protein stability index is 2.5 ± 0.097.

**Q.** And the protein stability index (ubr1∆)?
**A.** The protein stability index was 3.02 ± 0.075.

**Q.** Which results are given for AARKAEKAKSAGVQGSK [RPL24B]?
**A.** protein stability index (doa10∆): 3.27 ± 0.087; protein stability index (pdr5∆): 3.11 ± 0.068; protein stability index (san1∆): 3.18 ± 0.065; protein stability index (ubr1∆): 3.29 ± 0.042

**Q.** Which protein stability index (doa10∆) does the source give for NVAKNMKTPSLTVYLEP [RPO21] here?
**A.** Its protein stability index is 3.07 ± 0.1.

**Q.** What about the protein stability index (pdr5∆) of the same sequence?
**A.** Its protein stability index is 2.86 ± 0.085.

**Q.** What about the protein stability index (san1∆) of the same sequence?
**A.** The protein stability index was 2.94 ± 0.056.

**Q.** And the protein stability index (ubr1∆)?
**A.** The protein stability index was 3 ± 0.1.

**Q.** For KYACLAIRKNGQIDFWY [SIN4], which protein stability index (doa10∆) is on record?
**A.** Its protein stability index is 1.98 ± 0.067.

**Q.** What about the protein stability index (pdr5∆) of the same sequence?
**A.** Its protein stability index is 2.16 ± 0.077.

**Q.** What about the protein stability index (san1∆) of the same sequence?
**A.** Its protein stability index is 2.08 ± 0.071.

**Q.** What about the protein stability index (ubr1∆) of the same sequence?
**A.** The protein stability index was 2.39 ± 0.045.

**Q.** Which protein stability index (doa10∆) does the source give for TIYNLQHHVTDADKLSF [YML031W/NDC1] here?
**A.** Its protein stability index is 1.94 ± 0.04.

**Q.** And the protein stability index (pdr5∆)?
**A.** The protein stability index was 2.33 ± 0.053.

**Q.** And the protein stability index (san1∆)?
**A.** Its protein stability index is 1.98 ± 0.061.

**Q.** And the protein stability index (ubr1∆)?
**A.** Its protein stability index is 2.06 ± 0.04.

**Q.** For TPPVVVVGVVGYVETPR [RPL3], which protein stability index (doa10∆) is on record?
**A.** Its protein stability index is 1.81 ± 0.086.

**Q.** What about the protein stability index (pdr5∆) of the same sequence?
**A.** The protein stability index was 2.33 ± 0.068.

**Q.** What about the protein stability index (san1∆) of the same sequence?
**A.** Its protein stability index is 1.46 ± 0.072.

**Q.** And the protein stability index (ubr1∆)?
**A.** Its protein stability index is 2.86 ± 0.17.

**Q.** For VPNSIGNIFSNIGTPSF [SNF5], which protein stability index (doa10∆) is on record?
**A.** The protein stability index was 2.8 ± 0.11.

**Q.** What about the protein stability index (pdr5∆) of the same sequence?
**A.** The protein stability index was 2.6 ± 0.1.

**Q.** What about the protein stability index (san1∆) of the same sequence?
**A.** The protein stability index was 1.33 ± 0.15.

**Q.** And the protein stability index (ubr1∆)?
**A.** The protein stability index was 2.79 ± 0.061.

**Q.** Which results are given for TKHPSLKTLTHKQIHTT [POP7]?
**A.** protein stability index (doa10∆): 2.21 ± 0.039; protein stability index (pdr5∆): 2.4 ± 0.04; protein stability index (san1∆): 2.21 ± 0.05; protein stability index (ubr1∆): 2.48 ± 0.04

**Q.** With SSFNFNKNLPFVWLSSE [SWI1] as the sequence, how does the protein stability index (doa10∆) read?
**A.** Its protein stability index is 3.05 ± 0.046.

**Q.** And the protein stability index (pdr5∆)?
**A.** The protein stability index was 2.32 ± 0.057.

**Q.** And the protein stability index (san1∆)?
**A.** The protein stability index was 1.84 ± 0.053.

**Q.** And the protein stability index (ubr1∆)?
**A.** Its protein stability index is 2.4 ± 0.033.

**Q.** For VLNCLRTMYFILDGQDV [YJR042W/NUP85], which protein stability index (doa10∆) is on record?
**A.** The protein stability index was 1.87 ± 0.083.

**Q.** What about the protein stability index (pdr5∆) of the same sequence?
**A.** Its protein stability index is 1.42 ± 0.091.

**Q.** And the protein stability index (san1∆)?
**A.** The protein stability index was 1.31 ± 0.1.

**Q.** What about the protein stability index (ubr1∆) of the same sequence?
**A.** The protein stability index was 1.34 ± 0.078.

**Q.** With VKCKMSALQQIMYQQML [SNF2] as the sequence, how does the protein stability index (doa10∆) read?
**A.** The protein stability index was 2.8 ± 0.11.

**Q.** What about the protein stability index (pdr5∆) of the same sequence?
**A.** Its protein stability index is 2.56 ± 0.14.

**Q.** And the protein stability index (san1∆)?
**A.** Its protein stability index is 2.72 ± 0.12.

**Q.** What about the protein stability index (ubr1∆) of the same sequence?
**A.** Its protein stability index is 2.8 ± 0.074.

**Q.** For SEDSMNVQLRDVIATEP [SMD3], which protein stability index (doa10∆) is on record?
**A.** Its protein stability index is 2.94 ± 0.1.

**Q.** What about the protein stability index (pdr5∆) of the same sequence?
**A.** The protein stability index was 3.36 ± 0.098.

**Q.** And the protein stability index (san1∆)?
**A.** Its protein stability index is 3.09 ± 0.065.

**Q.** What about the protein stability index (ubr1∆) of the same sequence?
**A.** The protein stability index was 3.23 ± 0.039.

**Q.** Which protein stability index (doa10∆) does the source give for DQFITSLKCTDPYELKG [ITC1] here?
**A.** The protein stability index was 3.02 ± 0.12.

**Q.** What about the protein stability index (pdr5∆) of the same sequence?
**A.** Its protein stability index is 2.66 ± 0.09.

**Q.** And the protein stability index (san1∆)?
**A.** The protein stability index was 2.78 ± 0.088.

**Q.** What about the protein stability index (ubr1∆) of the same sequence?
**A.** The protein stability index was 2.95 ± 0.1.

**Q.** For HKHALHGTAKALAAAKK [RPL29], which protein stability index (doa10∆) is on record?
**A.** The protein stability index was 2.398 ± 0.023.

**Q.** What about the protein stability index (pdr5∆) of the same sequence?
**A.** The protein stability index was 2.425 ± 0.02.

**Q.** What about the protein stability index (san1∆) of the same sequence?
**A.** Its protein stability index is 2.24 ± 0.023.

**Q.** And the protein stability index (ubr1∆)?
**A.** The protein stability index was 2.323 ± 0.018.

**Q.** Which results are given for KDQALIGTINSIVHINS [SIR2]?
**A.** protein stability index (doa10∆): 1.69 ± 0.035; protein stability index (pdr5∆): 1.66 ± 0.032; protein stability index (san1∆): 1.75 ± 0.049; protein stability index (ubr1∆): 1.41 ± 0.027

**Q.** What does the source list for NGALDPKMGVSSSSLEC [RPO31]?
**A.** protein stability index (doa10∆): 3.21 ± 0.097; protein stability index (pdr5∆): 3.41 ± 0.049; protein stability index (san1∆): 3.22 ± 0.067; protein stability index (ubr1∆): 3.21 ± 0.047

**Q.** With AFDLDGTGKSQSGSNSG [ROX3] as the sequence, how does the protein stability index (doa10∆) read?
**A.** The protein stability index was 3.44 ± 0.25.

**Q.** What about the protein stability index (pdr5∆) of the same sequence?
**A.** The protein stability index was 2.71 ± 0.2.

**Q.** And the protein stability index (ubr1∆)?
**A.** The protein stability index was 3.42 ± 0.23.

**Q.** With NLPILKNHFRKHWQERV [RPL13A] as the sequence, how does the protein stability index (doa10∆) read?
**A.** The protein stability index was 2.33 ± 0.085.

**Q.** What about the protein stability index (pdr5∆) of the same sequence?
**A.** Its protein stability index is 2.83 ± 0.073.

**Q.** What about the protein stability index (san1∆) of the same sequence?
**A.** Its protein stability index is 2.31 ± 0.1.

**Q.** And the protein stability index (ubr1∆)?
**A.** Its protein stability index is 1.87 ± 0.089.

**Q.** With WVTEVLGNDIPHDLIIG [BRR2] as the sequence, how does the protein stability index (doa10∆) read?
**A.** The protein stability index was 2.17 ± 0.042.

**Q.** What about the protein stability index (pdr5∆) of the same sequence?
**A.** The protein stability index was 2.95 ± 0.056.

**Q.** What about the protein stability index (san1∆) of the same sequence?
**A.** Its protein stability index is 2.29 ± 0.063.

**Q.** What about the protein stability index (ubr1∆) of the same sequence?
**A.** The protein stability index was 2.89 ± 0.046.

**Q.** With NVFHGLCAGANNPKIQT [IRR1] as the sequence, how does the protein stability index (doa10∆) read?
**A.** Its protein stability index is 1.59 ± 0.062.

**Q.** What about the protein stability index (pdr5∆) of the same sequence?
**A.** The protein stability index was 1.97 ± 0.077.

**Q.** And the protein stability index (san1∆)?
**A.** The protein stability index was 1.48 ± 0.086.

**Q.** And the protein stability index (ubr1∆)?
**A.** Its protein stability index is 1.56 ± 0.073.

**Q.** Which protein stability index (ubr1∆) does the source give for TEEVEALLQRLKTNGKQ [MTW1] here?
**A.** Its protein stability index is 3.23 ± 0.21.

**Q.** Which results are given for DINVELFPVAAQDSLTV [RPB8]?
**A.** protein stability index (doa10∆): 1.33 ± 0.24; protein stability index (pdr5∆): 1.82 ± 0.11; protein stability index (san1∆): 1.16 ± 0.23; protein stability index (ubr1∆): 1.94 ± 0.069
